Consider one molecule from article PMC8939769 (2022).

In this experiment the target is SARS-CoV-2 spike protein receptor binding domain (RBD) (SARS-CoV-2, UniProt P0DTC2 319-541). The experiment in a line: ELISA.

B1: AZD8895 (tixagevimab) (antibody, V domains shown)
VH: QMQLVQSGPEVKKPGTSVKVSCKASGFTFMSSAVQWVRQARGQRLEWIGWIVIGSGNTNYAQKFQERVTITRDMSTSTAYMELSSLRSEDTAVYYCAAPYCSSISCNDGFDIWGQGTMVTVSS
VL: not shown
As for B1, the IC50 turned out to be 0.0477 µg/mL.

One may read the IC50 as the concentration that gives 50% inhibition.
